Assay results: patent publication US20250222069A1 (ACCELERON PHARMA, published 2025)
Numbering of substitutions follows the chain as printed. Values belong to the binder of their own block, whether it stands above or below them.

Target: T1, GDF11 (UniProt O95390 299-407)
T1 construct: also called BMP11
T1 sequence (looked up): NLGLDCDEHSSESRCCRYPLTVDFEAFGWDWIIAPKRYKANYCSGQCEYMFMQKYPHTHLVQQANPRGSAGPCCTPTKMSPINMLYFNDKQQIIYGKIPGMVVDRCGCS
Assay: Biacore; ligand coupled to chip, receptor flowed over (table reproduced from WO2006/012627)

B1: Soluble ActRIIB-Fc D80I (Fc fusion, not shown: a dimerising Fc or GST)
chain: SGRGEAETRECIYYNANWELERTNQSGLERCEGEQDKRLHCYASWANSSGTIELVKKGCWLIDFNCYDRQECVATEENPQVYFCCCEGNFCNERFTHLPEA
notes: From WO2006/012627; background 64A inferred
binding as fraction of WT binding: < 0.2 fold

B4: Soluble ActRIIB-Fc K74Y (Fc fusion, not shown: a dimerising Fc or GST)
chain: B1 chain with K56Y, I62D
notes: as for B1
binding as fraction of WT binding: < 0.2 fold

The next lines start with the values.

binding as fraction of WT binding: < 0.2 fold
B2: Soluble ActRIIB-Fc K74I (Fc fusion, not shown: a dimerising Fc or GST)
chain: B1 chain with K56I, I62D
notes: as for B1

binding as fraction of WT binding: < 0.2 fold
B3: Soluble ActRIIB-Fc K74F (Fc fusion, not shown: a dimerising Fc or GST)
chain: B1 chain with K56F, I62D
notes: as for B1
